# B1: alkaline phosphatase from bovine intestinal mucosa, labeled with JF646 (enzyme, UniProt P19111 20-506, looked up)
# chain: LVPVEEEDPAFWNRQAAQALDVAKKLQPIQTAAKNVILFLGDGMGVPTVTATRILKGQMNGKLGPETPLAMDQFPYVALSKTYNVDRQVPDSAGTATAYLCGVKGNYRTIGVSAAARYNQCKTTRGNEVTSVMNRAKKAGKSVGVVTTTRVQHASPAGAYAHTVNRNWYSDADLPADAQMNGCQDIAAQLVNNMDIDVILGGGRKYMFPVGTPDPEYPDDASVNGVRKRKQNLVQAWQAKHQGAQYVWNRTALLQAADDSSVTHLMGLFEPADMKYNVQQDHTKDPTLQEMTEVALRVVSRNPRGFYLFVEGGRIDHGHHDDKAYMALTEAGMFDNAIAKANELTSELDTLILVTADHSHVFSFGGYTLRGTSIFGLAPSKALDSKSYTSILYGNGPGYALGGGSRPDVNDSTSEDPSYQQQAAVPQASETHGGEDVAVFARGPQAHLVHGVEEETFVAHIMAFAGCVEPYTDCNLPAPTTATSIPD
# modifications: JF646 dye, attached by amine-NHS chemistry (nonspecific labeling; one or two dyes per molecule seen)
# Molecular target: the molecule itself
# Assay: ABEL trap-based single-molecule diffusometry
protein,measurement,value
B1,stoichiometry N,2
